Reference: article PMC9482650, “Quantitative fragmentomics allow affinity mapping of interactomes” (Nature Communications, 2022)

T1: RHPN1, Q8TCX5
T1 sequence (Q8TCX5 508-602, limits assumed, looked up): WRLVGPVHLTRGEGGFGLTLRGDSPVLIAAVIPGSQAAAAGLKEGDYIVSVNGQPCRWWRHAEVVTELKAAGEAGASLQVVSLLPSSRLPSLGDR

T2: LIN7B, Q9HAP6
T2 sequence (Q9HAP6 88-185, limits assumed, looked up): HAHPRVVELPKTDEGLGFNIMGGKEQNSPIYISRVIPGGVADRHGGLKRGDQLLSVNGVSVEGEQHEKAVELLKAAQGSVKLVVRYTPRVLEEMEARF

T3: TX1BP3, O14907
T3 sequence (O14907 10-122, limits assumed, looked up): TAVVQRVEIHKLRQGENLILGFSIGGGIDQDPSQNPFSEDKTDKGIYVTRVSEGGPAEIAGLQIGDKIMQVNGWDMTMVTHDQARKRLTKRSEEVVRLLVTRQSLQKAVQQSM

T4: LNX2_2, Q8N448
T4 sequence (Q8N448 334-432, limits assumed, looked up): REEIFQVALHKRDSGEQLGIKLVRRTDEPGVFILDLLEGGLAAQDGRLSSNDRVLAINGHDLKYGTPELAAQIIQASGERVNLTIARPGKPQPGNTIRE

T5: SNTG2, Q9NY99
T5 sequence (Q9NY99 68-166, limits assumed, looked up): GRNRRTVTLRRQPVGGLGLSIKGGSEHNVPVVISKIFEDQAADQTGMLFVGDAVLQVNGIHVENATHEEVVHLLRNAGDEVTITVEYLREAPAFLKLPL

T6: PDZRN3_1, Q9UPQ7
T6 sequence (Q9UPQ7 244-349, limits assumed, looked up): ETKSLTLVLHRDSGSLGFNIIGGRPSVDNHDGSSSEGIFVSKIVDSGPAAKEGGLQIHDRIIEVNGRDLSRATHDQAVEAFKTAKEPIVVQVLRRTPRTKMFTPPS

T7: DLG3_1, Q92796
T7 sequence (Q92796 125-227, limits assumed, looked up): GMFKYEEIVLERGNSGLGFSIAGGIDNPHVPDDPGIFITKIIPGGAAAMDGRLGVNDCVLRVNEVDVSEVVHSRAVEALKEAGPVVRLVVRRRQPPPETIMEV

T8: FRMPD1, Q5SYB0
T8 sequence (Q5SYB0 52-145, limits assumed, looked up): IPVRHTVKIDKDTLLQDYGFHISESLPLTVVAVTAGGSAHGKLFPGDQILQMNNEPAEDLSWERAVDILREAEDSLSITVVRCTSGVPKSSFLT

T9: MPP2, Q14168
T9 sequence (Q14168 180-250, limits assumed, looked up): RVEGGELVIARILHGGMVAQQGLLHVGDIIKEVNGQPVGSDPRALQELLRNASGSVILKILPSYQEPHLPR

T10: PCLO, Q9Y6V0
T10 sequence (Q9Y6V0 4491-4600, limits assumed, looked up): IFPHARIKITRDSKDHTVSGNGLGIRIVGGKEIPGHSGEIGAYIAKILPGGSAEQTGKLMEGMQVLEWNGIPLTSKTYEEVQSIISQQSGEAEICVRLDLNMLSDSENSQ

T11: SNTA1, Q13424
T11 sequence (Q13424 82-180, limits assumed, looked up): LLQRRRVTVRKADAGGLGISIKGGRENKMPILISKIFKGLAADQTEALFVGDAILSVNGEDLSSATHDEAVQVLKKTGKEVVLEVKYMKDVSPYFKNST


target: Inadl_8, Q8NI35; assay: holdup assay; design: key: below the threshold = too weak to quantify, mostly under pKd 3.1 to 4; settings: plain residues with an end cap or a label only (N-terminal biotin on a linker: ado-ado)
Sequence (Q8NI35 1425-1530): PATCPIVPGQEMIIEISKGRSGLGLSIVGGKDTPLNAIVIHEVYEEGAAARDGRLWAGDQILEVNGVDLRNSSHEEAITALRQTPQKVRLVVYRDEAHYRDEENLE

Binder	pKd
YPKQMPLSQV [FZD8, Q9H461]	4.61
LGHTPFVDEL [UQCRC2, P22695]	below the threshold

target: T1, RHPN1, Q8TCX5; assay: holdup assay; design: key: below the threshold = too weak to quantify, mostly under pKd 3.1 to 4; settings: plain residues with an end cap or a label only (N-terminal biotin on a linker: ado-ado)

Binder	pKd
YPKQMPLSQV [FZD8, Q9H461]	4.34
LGHTPFVDEL [UQCRC2, P22695]	below the threshold

target: GRIP2_3, Q9C0E4; assay: holdup assay; design: key: below the threshold = too weak to quantify, mostly under pKd 3.1 to 4; settings: plain residues with an end cap or a label only (N-terminal biotin on a linker: ado-ado)
Sequence (Q9C0E4 238-339): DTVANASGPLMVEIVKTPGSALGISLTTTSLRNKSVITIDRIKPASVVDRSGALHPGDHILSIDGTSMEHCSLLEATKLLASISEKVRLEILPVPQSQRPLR

Binder	pKd
YPKQMPLSQV [FZD8, Q9H461]	below the threshold
LGHTPFVDEL [UQCRC2, P22695]	below the threshold

target: T2, LIN7B, Q9HAP6; assay: holdup assay; design: key: below the threshold = too weak to quantify, mostly under pKd 3.1 to 4; settings: plain residues with an end cap or a label only (N-terminal biotin on a linker: ado-ado)

Binder	pKd
YPKQMPLSQV [FZD8, Q9H461]	below the threshold
LGHTPFVDEL [UQCRC2, P22695]	below the threshold

target: T3, TX1BP3, O14907; assay: holdup assay; design: key: below the threshold = too weak to quantify, mostly under pKd 3.1 to 4; settings: plain residues with an end cap or a label only (N-terminal biotin on a linker: ado-ado)

Binder	pKd
YPKQMPLSQV [FZD8, Q9H461]	below the threshold
LGHTPFVDEL [UQCRC2, P22695]	below the threshold

target: PDLIM1, O00151; assay: holdup assay; design: key: below the threshold = too weak to quantify, mostly under pKd 3.1 to 4; settings: plain residues with an end cap or a label only (N-terminal biotin on a linker: ado-ado)
Sequence (O00151 1-87): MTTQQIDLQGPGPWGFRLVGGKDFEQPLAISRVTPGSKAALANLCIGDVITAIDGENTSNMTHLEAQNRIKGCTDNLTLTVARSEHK

Binder	pKd
YPKQMPLSQV [FZD8, Q9H461]	below the threshold
LGHTPFVDEL [UQCRC2, P22695]	below the threshold

target: T4, LNX2_2, Q8N448; assay: holdup assay; design: key: below the threshold = too weak to quantify, mostly under pKd 3.1 to 4; settings: plain residues with an end cap or a label only (N-terminal biotin on a linker: ado-ado)

Binder	pKd
YPKQMPLSQV [FZD8, Q9H461]	below the threshold
LGHTPFVDEL [UQCRC2, P22695]	below the threshold

target: HTRA2, O43464; assay: holdup assay; design: key: below the threshold = too weak to quantify, mostly under pKd 3.1 to 4; settings: plain residues with an end cap or a label only (N-terminal biotin on a linker: ado-ado)
Sequence (O43464 355-458): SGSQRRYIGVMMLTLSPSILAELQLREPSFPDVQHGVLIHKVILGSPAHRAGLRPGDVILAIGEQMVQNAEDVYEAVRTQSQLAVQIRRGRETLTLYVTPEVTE

Binder	pKd
YPKQMPLSQV [FZD8, Q9H461]	below the threshold
LGHTPFVDEL [UQCRC2, P22695]	below the threshold

target: T5, SNTG2, Q9NY99; assay: holdup assay; design: key: below the threshold = too weak to quantify, mostly under pKd 3.1 to 4; settings: plain residues with an end cap or a label only (N-terminal biotin on a linker: ado-ado)

Binder	pKd
YPKQMPLSQV [FZD8, Q9H461]	below the threshold
LGHTPFVDEL [UQCRC2, P22695]	below the threshold

target: FRMPD2_1, Q68DX3; assay: holdup assay; design: key: below the threshold = too weak to quantify, mostly under pKd 3.1 to 4; settings: plain residues with an end cap or a label only (N-terminal biotin on a linker: ado-ado)
Sequence (Q68DX3 770-861): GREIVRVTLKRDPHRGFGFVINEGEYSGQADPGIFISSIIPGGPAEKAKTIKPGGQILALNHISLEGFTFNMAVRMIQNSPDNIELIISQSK

Binder	pKd
YPKQMPLSQV [FZD8, Q9H461]	below the threshold
LGHTPFVDEL [UQCRC2, P22695]	below the threshold

target: IL16_1, Q14005; assay: holdup assay; design: key: below the threshold = too weak to quantify, mostly under pKd 3.1 to 4; settings: plain residues with an end cap or a label only (N-terminal biotin on a linker: ado-ado)
Sequence (Q14005 210-306): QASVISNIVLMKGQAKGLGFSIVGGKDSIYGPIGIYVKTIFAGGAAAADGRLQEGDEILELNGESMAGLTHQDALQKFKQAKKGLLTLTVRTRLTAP

Binder	pKd
YPKQMPLSQV [FZD8, Q9H461]	below the threshold
LGHTPFVDEL [UQCRC2, P22695]	3.49

target: SNX27, Q96L92; assay: holdup assay; design: key: below the threshold = too weak to quantify, mostly under pKd 3.1 to 4; settings: plain residues with an end cap or a label only (N-terminal biotin on a linker: ado-ado)

Binder	pKd
YPKQMPLSQV [FZD8, Q9H461]	3.97
LGHTPFVDEL [UQCRC2, P22695]	3.99

target: T6, PDZRN3_1, Q9UPQ7; assay: holdup assay; design: key: below the threshold = too weak to quantify, mostly under pKd 3.1 to 4; settings: plain residues with an end cap or a label only (N-terminal biotin on a linker: ado-ado)

Binder	pKd
YPKQMPLSQV [FZD8, Q9H461]	below the threshold
LGHTPFVDEL [UQCRC2, P22695]	below the threshold

target: DLG4_2, P78352; assay: holdup assay; design: key: below the threshold = too weak to quantify, mostly under pKd 3.1 to 4; settings: plain residues with an end cap or a label only (N-terminal biotin on a linker: ado-ado)
Sequence (P78352 155-259): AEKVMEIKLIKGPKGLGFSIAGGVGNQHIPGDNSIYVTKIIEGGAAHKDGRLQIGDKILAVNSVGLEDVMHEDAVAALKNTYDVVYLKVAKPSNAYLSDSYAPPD

Binder	pKd
YPKQMPLSQV [FZD8, Q9H461]	below the threshold
LGHTPFVDEL [UQCRC2, P22695]	below the threshold

target: T7, DLG3_1, Q92796; assay: holdup assay; design: key: below the threshold = too weak to quantify, mostly under pKd 3.1 to 4; settings: plain residues with an end cap or a label only (N-terminal biotin on a linker: ado-ado)

Binder	pKd
YPKQMPLSQV [FZD8, Q9H461]	below the threshold
LGHTPFVDEL [UQCRC2, P22695]	below the threshold

target: T8, FRMPD1, Q5SYB0; assay: holdup assay; design: key: below the threshold = too weak to quantify, mostly under pKd 3.1 to 4; settings: plain residues with an end cap or a label only (N-terminal biotin on a linker: ado-ado)

Binder	pKd
YPKQMPLSQV [FZD8, Q9H461]	below the threshold
LGHTPFVDEL [UQCRC2, P22695]	below the threshold

target: IL16_4, Q14005; assay: holdup assay; design: key: below the threshold = too weak to quantify, mostly under pKd 3.1 to 4; settings: plain residues with an end cap or a label only (N-terminal biotin on a linker: ado-ado)
Sequence (Q14005 1229-1329): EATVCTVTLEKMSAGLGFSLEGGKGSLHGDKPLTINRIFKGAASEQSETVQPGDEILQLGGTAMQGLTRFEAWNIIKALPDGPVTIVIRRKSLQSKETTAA

Binder	pKd
YPKQMPLSQV [FZD8, Q9H461]	below the threshold
LGHTPFVDEL [UQCRC2, P22695]	3.59

target: T9, MPP2, Q14168; assay: holdup assay; design: key: below the threshold = too weak to quantify, mostly under pKd 3.1 to 4; settings: plain residues with an end cap or a label only (N-terminal biotin on a linker: ado-ado)

Binder	pKd
YPKQMPLSQV [FZD8, Q9H461]	below the threshold
LGHTPFVDEL [UQCRC2, P22695]	below the threshold

target: T10, PCLO, Q9Y6V0; assay: holdup assay; design: key: below the threshold = too weak to quantify, mostly under pKd 3.1 to 4; settings: plain residues with an end cap or a label only (N-terminal biotin on a linker: ado-ado)

Binder	pKd
YPKQMPLSQV [FZD8, Q9H461]	below the threshold
LGHTPFVDEL [UQCRC2, P22695]	below the threshold

target: Inadl_4, Q8NI35; assay: holdup assay; design: key: below the threshold = too weak to quantify, mostly under pKd 3.1 to 4; settings: plain residues with an end cap or a label only (N-terminal biotin on a linker: ado-ado)
Sequence (Q8NI35 547-651): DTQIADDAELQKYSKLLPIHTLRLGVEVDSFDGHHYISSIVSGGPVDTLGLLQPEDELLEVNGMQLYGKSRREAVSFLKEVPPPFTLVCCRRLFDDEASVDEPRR

Binder	pKd
YPKQMPLSQV [FZD8, Q9H461]	below the threshold
LGHTPFVDEL [UQCRC2, P22695]	below the threshold

target: NHERF4_1, Q86UT5-2; assay: holdup assay; design: key: below the threshold = too weak to quantify, mostly under pKd 3.1 to 4; settings: plain residues with an end cap or a label only (N-terminal biotin on a linker: ado-ado)
Sequence (Q86UT5 other isoform, or with tags, fused parts or gaps): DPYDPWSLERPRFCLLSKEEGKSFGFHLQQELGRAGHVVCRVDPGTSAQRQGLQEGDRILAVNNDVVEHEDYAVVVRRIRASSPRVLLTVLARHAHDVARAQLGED

Binder	pKd
YPKQMPLSQV [FZD8, Q9H461]	below the threshold
LGHTPFVDEL [UQCRC2, P22695]	4.2

target: LIMK2, P53671; assay: holdup assay; design: key: below the threshold = too weak to quantify, mostly under pKd 3.1 to 4; settings: plain residues with an end cap or a label only (N-terminal biotin on a linker: ado-ado)
Sequence (P53671 143-248): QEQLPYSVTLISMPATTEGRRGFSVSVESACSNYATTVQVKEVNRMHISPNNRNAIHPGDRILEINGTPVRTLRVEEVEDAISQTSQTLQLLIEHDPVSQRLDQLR

Binder	pKd
YPKQMPLSQV [FZD8, Q9H461]	below the threshold
LGHTPFVDEL [UQCRC2, P22695]	below the threshold

target: DLG4_3, P78352; assay: holdup assay; design: key: below the threshold = too weak to quantify, mostly under pKd 3.1 to 4; settings: plain residues with an end cap or a label only (N-terminal biotin on a linker: ado-ado)
Sequence (P78352 306-403): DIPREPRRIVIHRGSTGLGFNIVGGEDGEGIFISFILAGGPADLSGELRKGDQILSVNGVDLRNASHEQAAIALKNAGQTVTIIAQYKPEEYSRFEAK

Binder	pKd
YPKQMPLSQV [FZD8, Q9H461]	below the threshold
LGHTPFVDEL [UQCRC2, P22695]	below the threshold

target: IL16_3, Q14005; assay: holdup assay; design: key: below the threshold = too weak to quantify, mostly under pKd 3.1 to 4; settings: plain residues with an end cap or a label only (N-terminal biotin on a linker: ado-ado)
Sequence (Q14005 1107-1207): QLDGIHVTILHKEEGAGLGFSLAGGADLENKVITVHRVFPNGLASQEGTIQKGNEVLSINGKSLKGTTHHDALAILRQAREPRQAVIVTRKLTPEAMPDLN

Binder	pKd
YPKQMPLSQV [FZD8, Q9H461]	below the threshold
LGHTPFVDEL [UQCRC2, P22695]	below the threshold

target: HTRA1, Q92743; assay: holdup assay; design: key: below the threshold = too weak to quantify, mostly under pKd 3.1 to 4; settings: plain residues with an end cap or a label only (N-terminal biotin on a linker: ado-ado)
Sequence (Q92743 360-477): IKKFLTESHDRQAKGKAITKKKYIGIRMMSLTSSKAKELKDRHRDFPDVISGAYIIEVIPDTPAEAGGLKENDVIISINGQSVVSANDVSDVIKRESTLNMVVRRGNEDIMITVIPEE

Binder	pKd
YPKQMPLSQV [FZD8, Q9H461]	below the threshold
LGHTPFVDEL [UQCRC2, P22695]	3.97

target: PARD3_3, Q8TEW0; assay: holdup assay; design: key: below the threshold = too weak to quantify, mostly under pKd 3.1 to 4; settings: plain residues with an end cap or a label only (N-terminal biotin on a linker: ado-ado)
Sequence (Q8TEW0 582-685): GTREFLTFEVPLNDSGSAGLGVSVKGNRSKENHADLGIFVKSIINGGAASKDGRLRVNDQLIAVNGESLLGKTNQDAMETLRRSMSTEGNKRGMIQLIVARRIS

Binder	pKd
YPKQMPLSQV [FZD8, Q9H461]	below the threshold
LGHTPFVDEL [UQCRC2, P22695]	below the threshold

target: T11, SNTA1, Q13424; assay: holdup assay; design: key: below the threshold = too weak to quantify, mostly under pKd 3.1 to 4; settings: plain residues with an end cap or a label only (N-terminal biotin on a linker: ado-ado)

Binder	pKd
YPKQMPLSQV [FZD8, Q9H461]	3.67
LGHTPFVDEL [UQCRC2, P22695]	below the threshold
